In data set [1] the test system is HeLa Kyoto. In words: solubility in G1/S (NP-40 vs SDS abundance) (log2 ratio); higher = more soluble. To be noted: cell cycle stage: G1/S.
In data set [2] the test system is HeLa Kyoto. Description: solubility change mitosis vs G1/S (difference of NP-40 vs SDS log2 ratios) (log2 ratio difference); higher = more soluble in mitosis.
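Wherever solubility change mitosis vs G1/S (difference of NP-40 vs SDS log2 ratios) is given: synchronized HeLa Kyoto cells (double thymidine block for G1/S, nocodazole release for mitosis), protein amounts in NP-40 versus SDS lysates quantified by mass spectrometry, three biological replicates.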
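Wherever solubility in G1/S (NP-40 vs SDS abundance) is given: HeLa Kyoto cells arrested at G1/S by double thymidine block, proteins quantified by TMT10plex mass spectrometry in mild NP-40 versus SDS extracts, three biological replicates.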

As to “MATPGSEPQPFVPALSVATLHPLHHPHHHHHHHQHHGGTGAPGGAGGGGGGSGGFNLPLNRGLERALEEAANSGGLNLSARKLKEFPRTAAPGHDLSDTVQADLSKNRLVEVPMELCHFVSLEILNLYHNCIRVIPEAIVNLQMLTYLNLSRNQLSALPACLCGLPLKVLIASNNKLGSLPEEIGQLKQLMELDVSCNEITALPQQIGQLKSLRELNVRRNYLKVLPQELVDLSLVKFDFSCNKVLVIPICFREMKQLQVLLLENNPLQSPPAQICTKGKVHIFKYLSIQACQIKTADSLYLHTMERPHLHQHVEDGKKDSDSGVGSDNGDKRLSATEPSDEDTVSLNVPMSNIMEEEQIIKEDSCHRLSPVKGEFHQEFQPEPSLLGDSTNSGEERDQFTDRADGLHSEFMNYKARAEDCEELLRIEEDVHWQTEGIISSSKDQDMDIAMIEQLREAVDLLQDPNGLSTDITERSVLNLYPMGSAEALELQDSALNGQIQLETSPVCEVQSDLTLQSNGSQYSPNEIRENSPAVSPTTNSTAPFGLKPRSVFLRPQRNLESIDPQFTIRRKMEQMREEKELVEQLRESIEMRLKVSLHEDLGAALMDGVVLCHLVNHIRPRSVASIHVPSPAVPKLSMAKCRRNVENFLEACRKLGVPEADLCSPCDILQLDFRHIRKTVDTLLALGEKAPPPTSALRSRDLIGFCLVHILFIVLVYITYHWNALSA [LRCH1]”, in data set [1], the “solubility in G1/S (log2)” value is -0.0599. Further, the “solubility change mitosis (log2)” value in data set [2] is -0.186.
Turning to “MATVLSRALKLPGKKSPDLGEYDPLTQADSDESEDDLVLNLQKNGGVKNGKSPLGEAPEPDSDAEVAEAAKPHLSEVTTEGYPSEPLGGLEQKAASSLVSYVRTSVFLLTLGISMILVLLCAFLIPCPPRDLHSTWSRHLGSQGGGDLSPLELADVNGDGLRDVLLSFVMSRNGSAVGVSRPAANLVCLSGMNGSTLWSSLLPEEARDITCLELMPGSLAETICLVTGTHKMLSAFNATSGKAIWTLNPNYLSNGTLAAPVVVLPDLDEDGVRDLVVLAIGELQPDLCFLLVSGRTGNPVGRPVKYNIVGVGNLIGPQVYITTNGAVYILFGFGNIQAVALRDIFVQAQNRDSSPPSLQIEEPEWEKRRSINLSELIDVYSDGVELLQMVKAPDSNCSNLLITTRQSLVLLRGQNLTPYWALRLQGLRSQPTPGYFTDDQTLDFLLQIQDGVGMKKMMVVDGDSGSIVWSYRAPCHMKETPATSAVTSDQKSVFLFWAEGLSAASPNSDIILGTEPPSLHHLYLLHPAFPSILLDLANTTGTVTASEVGINDLWKDAFYVTRTTGPSSEGHPAALVVSKLSLRWALMEGQMAQLQESTPKIGRGELRRFLSRIKFVEAPYEI [KIAA1467]”, in data set [1], the “solubility in G1/S (log2)” value stood at 0.0831. Besides, in data set [2], the “solubility change mitosis (log2)” value was -0.0551.
The corresponding values for “MATVQEKAAALNLSALHSPAHRPPGFSVAQKPFGATYVWSSIINTLQTQVEVKKRRHRLKRHNDCFVGSEAVDVIFSHLIQNKYFGDVDIPRAKVVRVCQALMDYKVFEAVPTKVFGKDKKPTFEDSSCSLYRFTTIPNQDSQLGKENKLYSPARYADALFKSSDIRSASLEDLWENLSLKPANSPHVNISATLSPQVINEVWQEETIGRLLQLVDLPLLDSLLKQQEAVPKIPQPKRQSTMVNSSNYLDRGILKAYSDSQEDEWLSAAIDCLEYLPDQMVVEISRSFPEQPDRTDLVKELLFDAIGRYYSSREPLLNHLSDVHNGIAELLVNGKTEIALEATQLLLKLLDFQNREEFRRLLYFMAVAANPSEFKLQKESDNRMVVKRIFSKAIVDNKNLSKGKTDLLVLFLMDHQKDVFKIPGTLHKIVSVKLMAIQNGRDPNRDAGYIYCQRIDQRDYSNNTEKTTKDELLNLLKTLDEDSKLSAKEKKKLLGQFYKCHPDIFIEHFGD [DEPDC7]” are 0.222 and -0.0977.
On to “MAVDVAEYHLSVIKSPPGWEVGVYAAGALALLGIAAVSLWKLWTSGSFPSPSPFPNYDYRYLQQKYGESCAEAREKRVPAWNAQRASTRGPPSRKGSLSIEDTFESISELGPLELMGRELDLAPYGTLRKSQSADSLNSISSVSNTFGQDFTLGQVEVSMEYDTASHTLNVAVMQGKDLLEREEASFESCFMRVSLLPDEQIVGISRIQRNAYSIFFDEKFSIPLDPTALEEKSLRFSVFGIDEDERNVSTGVVELKLSVLDLPLQPFSGWLYLQDQNKAADAVGEILLSLSYLPTAERLTVVVVKAKNLIWTNDKTTADPFVKVYLLQDGRKMSKKKTAVKRDDPNPVFNEAMIFSVPAIVLQDLSLRVTVAESSSDGRGDNVGHVIIGPSASGMGTTHWNQMLATLRRPVSMWHAVRRN [SYT12]”, for which, in data set [1], the “solubility in G1/S (log2)” value worked out at 0.0502. Also, in data set [2], the “solubility change mitosis (log2)” value was -0.135.
The matching figures for “MAVTAQAARRKERVLCLFDVDGTLTPARQKIDPEVAAFLQKLRSRVQIGVVGGSDYCKIAEQLGDGDEVIEKFDYVFAENGTVQYKHGRLLSKQTIQNHLGEELLQDLINFCLSYMALLRLPKKRGTFIEFRNGMLNISPIGRSCTLEERIEFSELDKKEKIREKFVEALKTEFAGKGLRFSRGGMISFDVFPEGWDKRYCLDSLDQDSFDTIHFFGNETSPGGNDFEIFADPRTVGHSVVSPQDTVQRCREIFFPETAHEA [PMM1]”: 0.195 and 0.102.
“MAVWIQAQQLQGEALHQMQALYGQHFPIEVRHYLSQWIESQAWDSVDLDNPQENIKATQLLEGLVQELQKKAEHQVGEDGFLLKIKLGHYATQLQNTYDRCPMELVRCIRHILYNEQRLVREANNGSSPAGSLADAMSQKHLQINQTFEELRLVTQDTENELKKLQQTQEYFIIQYQESLRIQAQFGPLAQLSPQERLSRETALQQKQVSLEAWLQREAQTLQQYRVELAEKHQKTLQLLRKQQTIILDDELIQWKRRQQLAGNGGPPEGSLDVLQSWCEKLAEIIWQNRQQIRRAEHLCQQLPIPGPVEEMLAEVNATITDIISALVTSTFIIEKQPPQVLKTQTKFAATVRLLVGGKLNVHMNPPQVKATIISEQQAKSLLKNENTRNDYSGEILNNCCVMEYHQATGTLSAHFRNMSLKRIKRSDRRGAESVTEEKFTILFESQFSVGGNELVFQVKTLSLPVVVIVHGSQDNNATATVLWDNAFAEPGRVPFAVPDKVLWPQLCEALNMKFKAEVQSNRGLTKENLVFLAQKLFNNSSSHLEDYSGLSVSWSQFNRENLPGRNYTFWQWFDGVMEVLKKHLKPHWNDGAILGFVNKQQAHDLLINKPDGTFLLRFSDSEIGGITIAWKFDSQERMFWNLMPFTTRDFSIRSLADRLGDLNYLIYVFPDRPKDEVYSKYYTPVPCESATAKAVDGYVKPQIKQVVPEFVNASADAGGGSATYMDQAPSPAVCPQAHYNMYPQNPDSVLDTDGDFDLEDTMDVARRVEELLGRPMDSQWIPHAQS [STAT5B]”: the “solubility in G1/S (log2)” value in data set [1] was -0.0111. The “solubility change mitosis (log2)” value in data set [2] is -0.309.
As to “MAWWKAWIEQEGVTVKSSSHFNPDPDAETLYKAMKGIGTNEQAIIDVLTKRSNTQRQQIAKSFKAQFGKDLTETLKSELSGKFERLIVALMYPPYRYEAKELHDAMKGLGTKEGVIIEILASRTKNQLREIMKAYEEDYGSSLEEDIQADTSGYLERILVCLLQGSRDDVSSFVDPALALQDAQDLYAAGEKIRGTDEMKFITILCTRSATHLLRVFEEYEKIANKSIEDSIKSETHGSLEEAMLTVVKCTQNLHSYFAERLYYAMKGAGTRDGTLIRNIVSRSEIDLNLIKCHFKKMYGKTLSSMIMEDTSGDYKNALLSLVGSDP [ANXA8L1]”, in data set [1], the “solubility in G1/S (log2)” value turned out to be 0.415. Further, the “solubility change mitosis (log2)” value in data set [2] was -0.077.
The matching figures for “MCARMAGRTTAAPRGPYGPWLCLLVALALDVVRVDCGQAPLDPVYLPAALELLDAPEHFRVQQVGHYPPANSSLSSRSETFLLLQPWPRAQPLLRASYPPFATQQVVPPRVTEPHQRPVPWDVRAVSVEAAVTPAEPYARVLFHLKGQDWPPGSGSLPCARLHATHPAGTAHQACRFQPSLGACVVELELPSHWFSQASTTRAELAYTLEPAAEGPGGCGSGEENDPGEQALPVGGVELRPADPPQYQEVPLDEAVTLRVPDMPVRPGQLFSATLLLRHNFTASLLTLRIKVKKGLHVTAARPAQPTLWTAKLDRFKGSRHHTTLITCHRAGLTEPDSSPLELSEFLWVDFVVENSTGGGVAVTRPVTWQLEYPGQAPEAEKDKMVWEILVSERDIRALIPLAKAEELVNTAPLTGVPQHVPVRLVTVDGGGALVEVTEHVGCESANTQVLQVSEACDAVFVAGKESRGARGVRVDFWWRRLRASLRLTVWAPLLPLRIELTDTTLEQVRGWRVPGPAEGPAEPAAEASDEAERRARGCHLQYQRAGVRFLAPFAAHPLDGGRRLTHLLGPDWLLDVSHLVAPHARVLDSRVASLEGGRVVVGREPGVTSIEVRSPLSDSILGEQALAVTDDKVSVLELRVQPVMGISLTLSRGTAHPGEVTATCWAQSALPAPKQEVALSLWLSFSDHTVAPAELYDRRDLGLSVSAEEPGAILPAEEQGAQLGVVVSGAGAEGLPLHVALHPPEPCRRGRHRVPLASGTAWLGLPPASTPAPALPSSPAWSPPATEATMGGKRQVAGSVGGNTGVRGKFERAEEEARKEETEAREEEEEEEEEMVPAPQHVTELELGMYALLGVFCVAIFIFLVNGVVFVLRYQRKEPPDSATDPTSPQPHNWVWLGTDQEELSRQLDRQSPGPPKGEGSCPCESGGGGEAPTLAPGPPGGTTSSSSTLARKEAGGRRKRVEFVTFAPAPPAQSPEEPVGAPAVQSILVAGEEDIRWVCEDMGLKDPEELRNYMERIRGSS [TMEM132A]”: -0.00491 and -0.0467.
Consider “MCDQQKQPQFPPSCVKGSGLGAGQGSNGASVKCPVPCQTQTVCVTGPAPCPTQTYVKYQVPCQTQTYVKCPAPCQRTYVKYPTPCQTYVKCPAPCQTTYVKCPTPCQTYVKCPAPCQMTYIKSPAPCQTQTCYVQGASPCQSYYVQAPASGSTSQYCVTDPCSAPCSTSYCCLAPRTFGVSPLRRWIQRPQNCNTGSSGCCENSGSSGCCGSGGCGCSCGCGSSGCCCLGIIPMRSRGPACCDHEDDCCC [XP32]”, for which the “solubility in G1/S (log2)” value in data set [1] is -1.33. Besides, the “solubility change mitosis (log2)” value in data set [2] was found to be 1.06.
The corresponding values for “MDAAEPGLPPGPEGRKRYSDIFRSLDNLEISLGNVTLEMLAGDPLLSEDPEPDKTPTATVTNEASCWSGPSPEGPVPLTGEELDLRLIRTKGGVDAALEYAKTWSRYAKELLAWTEKRASYELEFAKSTMKIAEAGKVSIQQQSHMPLQYIYTLFLEHDLSLGTLAMETVAQQKRDYYQPLAAKRTEIEKWRKEFKEQWMKEQKRMNEAVQALRRAQLQYVQRSEDLRARSQGSPEDSAPQASPGPSKQQERRRRSREEAQAKAQEAEALYQACVREANARQQDLEIAKQRIVSHVRKLVFQGDEVLRRVTLSLFGLRGAQAERGPRAFAALAECCAPFEPGQRYQEFVRALRPEAPPPPPPAFSFQEFLPSLNSSPLDIRKKLSGPLPPRLDENSAEPGPWEDPGTGWRWQGTPGPTPGSDVDSVGGGSESRSLDSPTSSPGAGTRQLVKASSTGTESSDDFEERDPDLGDGLENGLGSPFGKWTLSSAAQTHQLRRLRGPAKCRECEAFMVSGTECEECFLTCHKRCLETLLILCGHRRLPARTPLFGVDFLQLPRDFPEEVPFVVTKCTAEIEHRALDVQGIYRVSGSRVRVERLCQAFENGRALVELSGNSPHDVSSVLKRFLQELTEPVIPFHLYDAFISLAKTLHADPGDDPGTPSPSPEVIRSLKTLLVQLPDSNYNTLRHLVAHLFRVAARFMENKMSANNLGIVFGPTLLRPPDGPRAASAIPVTCLLDSGHQAQLVEFLIVHYEQIFGMDELPQATEPPPQDSSPAPGPLTTSSQPPPPHLDPDSQPPVLASDPGPDPQHHSTLEQHPTATPTEIPTPQSDQREDVAEDTKDGGGEVSSQGPEDSLLGTQSRGHFSRQPVKYPRGGVRPVTHQLSSLALVASKLCEETPITSVPRGSLRGRGPSPAAASPEGSPLRRTPLPKHFEITQETARLLSKLDSEAVPRATCCPDVQPEEAEDHL [GMIP]” are 0.095 and 0.0497.

The values are drawn from the supplement of paper PMC5998384.
